Reference: PMC12000434 (2025)

B1: FLAG-NDP52^WT [human] / HA-LC3C [human] (parent complex)
chain 1: MEETIKDPPTSAVLLDHCHFSQVIFNSVEKFYIPGGDVTCHYTFTQHFIPRRKDWIGIFRVGWKTTREYYTFMWVTLPIDLNNKSAKQQEVQFKAYYLPKDDEYYQFCYVDEDGVVRGASIPFQFRPENEEDILVVTTQGEVEEIEQHNKELCKENQELKDSCISLQKQNSDMQAELQKKQEELETLQSINKKLELKVKEQKDYWETELLQLKEQNQKMSSENEKMGIRVDQLQAQLSTQEKEMEKLVQGDQDKTEQLEQLKKENDHLFLSLTEQRKDQKKLEQTVEQMKQNETTAMKKQQELMDENFDLSKRLSENEIICNALQRQKERLEGENDLLKRENSRLLSYMGLDFNSLPYQVPTSDEGGARQNPGLAYGNPYSGIQESSSPSPLSIKKCPICKADDICDHTLEQQQMQPLCFNCPICDKIFPATEKQIFEDHVFCHSL
chain 2: MPPPQKIPSVRPFKQRKSLAIRQEEVAGIRAKFPNKIPVVVERYPRETFLPPLDKTKFLVPQELTMTQFLSIIRSRMVLRATEAFYLLVNNKSLVSMSATMAEIYRDYKDEDGFVYMTYASQETFG

Variants of: B1
Assay: co-immunoprecipitation (anti-HA beads), Western blot densitometry; lysates of SH-SY5Y cells; three independent experiments; parent: 100; read off a plot

chain 1 G140E was tested. Which percent of parent did it give?
The percent of parent was ~190 % of WT.

For chain 1 V136S, chain 1 G140E, which percent of parent is on record?
The percent of parent was ~53 % of WT.

Which percent of parent does the source give for chain 1 V136S here?
The percent of parent was ~53 % of WT.

Variants of: B1
Assay: co-immunoprecipitation, Western blot densitometry; lysates of SH-SY5Y cells; three independent experiments; blot labelled IP:HA(LC3C); parent: 100; read off a plot

Which percent of parent does the source give for chain 1 G140E here?
Its percent of parent is ~240 % of WT.

chain 1 G140E, chain 1 D203A, chain 1 Y204A, chain 1 W205A, chain 1 E206A was tested. Which percent of parent did it give?
The percent of parent was ~230 % of WT.

chain 1 D203A, chain 1 Y204A, chain 1 W205A, chain 1 E206A was tested. Which percent of parent did it give?
The percent of parent was ~130 % of WT.
